Ten molecules from PMC8248824 (Acta Crystallographica. Section F, Structural Biology …, 2021) can be followed below.

The chains are these.
B1: DARPin D6 (designed binder)
chain: GSDLGKKLLEAARAGQDDEVRILMANGADVNAQDVSGQTPLHLAAIWGHLEIVEVLLKTGADVNAWDHWGNTPLHLAAWQGHLEIVEVLLKAGTDVNAKDSEGFTPLHLAAWWGHLEIVEVLLKHGADVNAQDKFGKTPFDLAIDNGNEDIAEVLQKAAKLN
notes: N3C DARPin selected by ribosome display; source: E. coli XL1 Blue, purified (HisPur Cobalt Spin Plates)
B2: DARPin D8 (designed binder)
chain: B1 chain with T94A
notes: as for B1
B3: DARPin D7 (designed binder)
chain: GSDLGKKLLEATRAGQDDEVRILMANGADVNAQDVSGQTPLHLAAIWGHLEIVEVLLKTGADVNAQDWFGETPLHLAAVQGHLEIVEVLLKTGADVNAWDAYGHTPLHLAANYGHLEIVEVLLKHGADVNAQDKFGKTPFDLAIDNGNEDIAEVLQKAAKLN
notes: as for B1
B4: DARPin D4 (designed binder)
chain: GSDLGKKLLEAARAGQDDEVRILMANGADVNAFDHNGSTPLHLAAAIGHLEIVEVLLKYGADVNAEDNWGNTPLHQAAWVGHREIVEVLLKYGADVNAQDKFGKTAFDISIDNGNEDLAEILQKLN
notes: N2C DARPin selected by ribosome display; source: E. coli XL1 Blue, purified (HisPur Cobalt Spin Plates)
B5: DARPin D3 (designed binder)
chain: B4 chain with N36S
notes: as for B4
B6: DARPin D1 (designed binder)
chain: B4 chain with A25T, A94V
notes: as for B4
B7: DARPin D2 (designed binder)
chain: B4 chain with I22V
notes: as for B4
B8: DARPin D5 (His6- and FLAG-tagged form used for characterisation) (designed binder)
chain: B4 chain with R83L, Y92N
notes: as for B4
B9: DARPin D5 (designed ankyrin-repeat protein D5), His6 tag removed by 3C protease (designed binder)
chain: GPGSDLGKKLLEAARAGQDDEVRILMANGADVNAFDHNGSTPLHLAAAIGHLEIVEVLLKYGADVNAEDNWGNTPLHQAAWVGHLEIVEVLLKNGADVNAQDKFGKTAFDISIDNGNEDLAEILQKLN
notes: N2C DARPin selected by ribosome display; Carries the framework mutation L86Q against the DARPin consensus; source: E. coli XL1 Blue, purified (Ni-NTA, 3C protease cleavage, reverse Ni-NTA); not shown: His6, N-terminal, cleaved
B10: DARPin D5 from the pQiq_FLAG expression vector (N-terminal His6 tag, C-terminal FLAG tag) (designed binder)
chain: DLGKKLLEAARAGQDDEVRILMANGADVNAFDHNGSTPLHLAAAIGHLEIVEVLLKYGADVNAEDNWGNTPLHQAAWVGHLEIVEVLLKNGADVNAQDKFGKTAFDISIDNGNEDLAEILQKLN
notes: DARPin D5 itself, as printed within the crystallisation construct (from Asp13); source: E. coli XL1 Blue, purified (HisPur Cobalt Spin Plates)

Substitutions are numbered along the chain they refer to. Names may count otherwise.

The first assay deals with T1, HER3 extracellular domain 4, biotinylated (N-terminal AviTag and His6 tag) (human, biotin (in vitro biotinylation, AviTag)).
T1 construct: HER3 (ErbB3) extracellular domain 4, human, residues 500-643 of UniProt entry P21860; also called HER3d4; HER3 domain 4; source: Sf9 insect cells (baculovirus), secreted, purified (IMAC, Superdex 75), biotinylated in vitro; not shown: AviTag, N-terminal, kept
T1 chain: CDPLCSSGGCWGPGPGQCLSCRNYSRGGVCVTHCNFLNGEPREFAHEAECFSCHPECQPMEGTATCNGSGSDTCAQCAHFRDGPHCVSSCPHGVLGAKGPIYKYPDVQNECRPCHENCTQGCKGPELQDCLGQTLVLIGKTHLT
In words: SPR; ProteOn XPR36, NeutrAvidin NLC chip; biotinylated HER3d4 immobilised; monomeric DARPins injected at 2.5, 7.5, 22, 67 and 200 nM (duplicates), 60 µl/min, 5 min association, 5 min dissociation; PBS with 0.005% Tween-20; kinetic titration model. The note with it: both partners purified.
For orientation: koff means the rate constant with which the complex falls apart. A higher koff goes with fast dissociation. What is called kon is the second-order rate constant of association. Low readings indicate slow association, high ones fast association. B1 had a koff of 0.000623 s⁻¹ and a kon of 138000 M⁻¹ s⁻¹.
What is called Kd is the free concentration of one partner at which half of the binding sites on the other are occupied at equilibrium, for simple one-to-one binding. High values mean a looser complex, low ones a tighter complex. The molecule B2 registered a Kd of 5 nM, a koff of 0.000791 s⁻¹ and a kon of 158000 M⁻¹ s⁻¹.
Taken in the same sequence, the figures for B3 were 7.5 nM, 0.00147 s⁻¹ and 196000 M⁻¹ s⁻¹.
In turn, B4 came in with a Kd of 4.4 nM, a koff of 0.00669 s⁻¹ and a kon of 1.51e+06 M⁻¹ s⁻¹.
The molecule B5 showed a koff of 0.0109 s⁻¹ and a kon of 1.35e+06 M⁻¹ s⁻¹.
The molecule B6 showed a Kd of 7.6 nM, a koff of 0.00932 s⁻¹ and a kon of 1.23e+06 M⁻¹ s⁻¹.
Taken in the same sequence, the figures for B7 were 5.7 nM, 0.00783 s⁻¹ and 1.37e+06 M⁻¹ s⁻¹.
B8: the Kd was 6.9 nM, the koff was 0.00856 s⁻¹ and the kon came out at 1.25e+06 M⁻¹ s⁻¹.

A further assay deals with T2, HER3 extracellular domain 4 (HER3d4) without AviTag, deglycosylated (Homo sapiens).
T2 construct: PNGase F treatment may have turned glycosylated Asn into Asp (surmise); also called HER3 domain 4; ErbB3 domain 4; source: Sf9 (baculovirus), secreted, purified (IMAC), deglycosylated with PNGase F, ConA Sepharose
T2 chain: T1 chain
The assay is described as follows: crystal structure; DARPin D5 incubated with HER3d4 at a 1:1.2 molar ratio, complex purified by gel filtration in PBS; sitting drop, 277 K; two crystal forms, P2(1) at 2.3 A and P2(1)2(1)2(1) at 2.0 A. The note with it: both partners purified. Background: In gel filtration, larger molecules generally elute earlier.
Take B9: the binding result is on record as “binds”.

The next assay addresses T3, biotinylated HER3 domain 4 with N-terminal AviTag and His6 tag (Homo sapiens, biotin (in vitro biotinylation of the AviTag)).
T3 construct: also called biotinylated HER3d4; HER3d4; source: Sf9 (baculovirus), secreted, purified (IMAC, in vitro biotinylation, Superdex 75 SEC); not shown: AviTag, N-terminal, kept
T3 chain: T1 chain
The assay is described as follows: SPR; ProteOn XPR36, biotinylated HER3d4 on a NeutrAvidin NLC chip; monomeric DARPins injected at 2.5, 7.5, 22, 67 and 200 nM, 60 ul/min; PBS with 0.005% Tween-20; kinetic titration model. The note with it: both partners purified.
As to B10, the binding result was “binds”.

Another assay has as its target biotinylated HER3 domain 4 with N-terminal AviTag and His6 tag (Homo sapiens). The description is as above.
Details: not given
B1 came in with a Kd of 4.5 nM.
As for B5, the Kd came out at 8.1 nM.
